Test results published in patent US20180135109, “EVALUATION OF CAS9 MOLECULE/GUIDE RNA MOLECULE COMPLEXES” (EDITAS MEDICINE, INC., published 2018).

Target: Cas9 (Streptococcus pyogenes, UniProt Q99ZW2 SEQ:1-1368)
Experiment: DSF, no thermal shift with alien gRNA; 10 mM Hepes pH 7.5, 150 mM NaCl; 1 uM gRNA
Conditions: gRNA scaffold; printed as encoding DNA
Experimental: DSF was also used to examine Cas9 molecule/gRNA molecule complexes. S. pyogenes Cas9 alone, S. pyogenes Cas9 with 1 μM S. pyogenes gRNA, and S. pyogenes Cas9 with 1 μM S. aureus gRNA were tested in H150 (10 mM Hepes pH 7.5, 150 mM NaCl). The DNA sequences encoding the gRNA molecules used in these experiments were: […]

Chain of Cas9 (Q99ZW2 whole entry): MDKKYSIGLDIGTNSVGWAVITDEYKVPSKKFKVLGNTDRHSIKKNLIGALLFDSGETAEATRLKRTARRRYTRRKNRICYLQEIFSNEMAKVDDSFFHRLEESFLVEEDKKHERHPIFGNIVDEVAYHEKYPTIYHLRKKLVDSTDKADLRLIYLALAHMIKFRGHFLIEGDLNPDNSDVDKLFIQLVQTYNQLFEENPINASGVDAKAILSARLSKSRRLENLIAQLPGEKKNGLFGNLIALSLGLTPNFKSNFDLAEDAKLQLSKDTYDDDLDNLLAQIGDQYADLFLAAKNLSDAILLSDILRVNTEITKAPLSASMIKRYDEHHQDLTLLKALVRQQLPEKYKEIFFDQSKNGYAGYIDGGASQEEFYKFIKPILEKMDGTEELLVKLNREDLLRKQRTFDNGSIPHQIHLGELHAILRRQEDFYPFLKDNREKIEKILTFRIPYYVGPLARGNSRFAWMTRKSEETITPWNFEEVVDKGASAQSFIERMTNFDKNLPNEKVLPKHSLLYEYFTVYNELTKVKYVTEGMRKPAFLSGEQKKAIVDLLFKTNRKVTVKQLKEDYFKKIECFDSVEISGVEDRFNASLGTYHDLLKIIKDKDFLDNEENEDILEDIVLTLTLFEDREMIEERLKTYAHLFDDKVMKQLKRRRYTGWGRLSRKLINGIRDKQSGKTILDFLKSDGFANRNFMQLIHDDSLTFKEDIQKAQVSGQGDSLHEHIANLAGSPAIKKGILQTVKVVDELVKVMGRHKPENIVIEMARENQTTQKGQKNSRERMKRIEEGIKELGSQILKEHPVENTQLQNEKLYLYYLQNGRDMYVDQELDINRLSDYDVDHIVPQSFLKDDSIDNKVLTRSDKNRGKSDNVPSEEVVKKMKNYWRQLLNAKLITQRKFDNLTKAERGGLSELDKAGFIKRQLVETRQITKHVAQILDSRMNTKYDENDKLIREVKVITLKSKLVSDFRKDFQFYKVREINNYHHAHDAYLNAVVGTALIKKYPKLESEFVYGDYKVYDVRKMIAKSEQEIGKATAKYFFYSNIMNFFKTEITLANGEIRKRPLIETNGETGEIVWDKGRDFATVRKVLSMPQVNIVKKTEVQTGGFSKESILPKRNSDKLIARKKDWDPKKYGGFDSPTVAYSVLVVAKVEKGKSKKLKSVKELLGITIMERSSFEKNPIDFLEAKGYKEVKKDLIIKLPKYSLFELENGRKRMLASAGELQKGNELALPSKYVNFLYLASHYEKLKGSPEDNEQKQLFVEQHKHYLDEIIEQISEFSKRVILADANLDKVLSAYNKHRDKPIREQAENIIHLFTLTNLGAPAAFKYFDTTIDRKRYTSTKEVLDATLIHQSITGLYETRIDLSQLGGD

B1: S. aureus gRNA scaffold (ssRNA)
RNA: GUUUUAGUACUCUGGAAACAGAAUCUACUAAAACAAGGCAAAAUGCCGUGUUUAUCUCGUCAACUUGUUGGCGAGAUUUU
- binding result: no binding
